Results from patent US20130137856A1, “PROTEIN BINDING DOMAINS STABILIZING FUNCTIONAL CONFORMATIONAL STATES OF GPCRS AND USES THEREOF” (priority 2010, published 2013).
Entries after “also recorded” stand apart in the source; their conditions may differ.

Experiments:
β2AR [1] = target: T1, β2AR (Homo sapiens, UniProt P07550); test: [3H]-DHA competition binding on Sf9 insect cell membranes expressing β2AR, with or without nanobody; set-up: recombinant β2AR truncated at Gly365 (β2AR-365); made in house; host or cells: Sf9 insect cells (membranes); details: agonist competition binding with versus without nanobody
Excerpt: Panel b: Dose-response competition binding experiments on Sf9 insect cell membranes expressing β2AR.

β2AR [2] = test: Size exclusion chromatography of nanobody with purified detergent-solubilized β2AR; format: binding, human; details: 20 μM β2AR bound to an agonist, 40 μM nanobody
Method: The mixture was then analyzed by Size Exclusion Chromatography (SEC), which separates protein on the basis of size. Seven of the nanobodies bound to purified β2AR and migrated as a complex on SEC only in the presence of agonist and not an inverse agonist (an example is shown in FIG. 1, Panel a, FIG. 3 and FIG. 4).
Agonist selective nanobodies were identified by size exclusion chromatography following incubation of 20 μM agonist or inverse agonist- (carazolol-) bound β2AR-365N for one hour at RT in the absence or presence of 40 μM nanobody.

β2AR [3] = target: T1, β2AR; test: Monobromobimane (mBBr) fluorescence of labeled purified β2AR; format: biochemical; details: 1 μM nanobody plus full agonist isoproterenol
Excerpt: To investigate the effect of nanobodies on movement of the cytoplasmic domain of TM6 we labeled purified β2AR at C265 with monobromobimane (mBB-β2AR). […] In mBB-β2AR, the addition of agonist together with G protein results in larger fluorescent changes than either agonist or G protein alone. This is compatible with the cooperative interactions observed in agonist competition binding assays (Yao et al. 2009).
Purified β2AR was reacted with 1:1 equivalent of monobromobimane (mBBr, Invitrogen) in 100 mM NaCl, 20 mM HEPES, pH 7.5, 0.1% dodecyl maltoside and incubated overnight on ice in the dark. The fluorophore-labeled receptor was purified right before use by gel filtration on a desalting column equilibrated with the same buffer. […] All experiments were performed at 25° C. […] To determine the effect of nanobodies and ligands, three individual labeled protein samples were incubated with 1 μM nanobody or 10 μM Isoproterenol or both. Emission spectra of the samples were taken after 1 hour incubation.

| Molecule | Enhancement of β2AR affinity for the agonist isoproterenol in the presence of the nanobody (β2AR [1]) | Complex formation with agonist-bound β2AR on SEC (β2AR [2]) | mBBr fluorescence change of isoproterenol-bound β2AR with nanobody (active state) (β2AR [3]; listed as 67) | mBBr fluorescence change of isoproterenol-bound β2AR with nanobody (active state) (β2AR [3]; listed as 65) | mBBr fluorescence change of isoproterenol-bound β2AR with nanobody (active state) (β2AR [3]; listed as 71) | mBBr fluorescence change of isoproterenol-bound β2AR with nanobody (active state) (β2AR [3]; listed as 69) | mBBr fluorescence change of isoproterenol-bound β2AR with nanobody (active state) (β2AR [3]; listed as 72) | mBBr fluorescence change of isoproterenol-bound β2AR with nanobody (active state) (β2AR [3]; listed as 84) |
| --- | --- | --- | --- | --- | --- | --- | --- | --- |
| NB67: β2AR-specific nanobody, SEQ ID NO:20 (protein, listed as Lama glama) VHH: QVQLQESGGGLVQAGGSLRLSCAASGTISSFIAMGWYRQSPGKQRELVAGITSGGETNYEDSVKGRFTISRDNAKNTLYLQMNTLKPEDTAVYYCNAQVFADIFNLINYWGQGTQVTVSS | two- to thirty-fold | complex formation | Comparable results; also recorded: stabilize a more active state |  |  |  |  |  |
| NB65: β2AR-specific nanobody, SEQ ID NO:5 (protein, listed as Lama glama) VHH: QVQLQESGGGLVQAGGSLRLSCAASGSIFSINTMGWYRQAPGKQRELVAAIHSGGSTNYADSVRGRFTISRDNAKNTVYLQMNSLKPEDTAVYYCNVKDYGAVLYEYDYWGQGTQVTVSS | two- to thirty-fold | complex formation |  | Comparable results; also recorded: stabilize a more active state |  |  |  |  |
| NB71: β2AR-specific nanobody, SEQ ID NO:25 (protein, listed as Lama glama) VHH: QVQLQESGGGLVQPGGSLRLSCAASGFAFSSYELRWYRQAPGKQHELVAGITTGGNTYYADSVKGRFTISRDNAKNTVYLQMSNLRPEDTAVYACNANWDLLSDYWGQGTQVTVSS | two- to thirty-fold | complex formation |  |  | Comparable results; also recorded: stabilize a more active state |  |  |  |
| NB69: β2AR-specific nanobody, SEQ ID NO:26 (protein, listed as Lama glama) VHH: QVQLQESGGGLVQPGGSLRLSCAASGSIFSINAMGWYRQAPGKQRDLVASITSGGSTNYADSVKGRFTISRDNAKNTVYLQMNSLKPEDTAVYYCNVQGTGPSSWLFNEYDYWGQGTQVTVSS | two- to thirty-fold | complex formation |  |  |  | Comparable results; also recorded: stabilize a more active state |  |  |
| NB72: β2AR-specific nanobody, probably CA2772, SEQ ID NO:24; CA3472 carries the same short notation (protein, listed as Lama glama) VHH: QVQLQESGGGLVQPGGSLRLSCAASGFTFSGYAMNWVRQAPGKGPEWVSAINSGGGSTSYADSVKGRFTISRDNAKNTVYLQMNSLKPEDTAVYYCHARDIYSDFLGQYEYDYWGQGTQVTVSS | two- to thirty-fold | complex formation |  |  |  |  | Comparable results; also recorded: stabilize a more active state |  |
| NB84: β2AR-specific nanobody, probably CA2784, SEQ ID NO:29; CA3484 carries the same short notation (protein, listed as Lama glama) VHH: QVQLQESGGGLVQAGGSLRLSCAASGSIFSINAMGWYRQAPGKQRELVAAITSGGSTTYADSVKGRFTVSRDNAKNTVYLQMIRLKPEDTAVYYCHVRDIYSDFLGQYEYDYWGQGTQVTVSS | two- to thirty-fold | complex formation |  |  |  |  |  | Comparable results; also recorded: stabilize a more active state |
